As usually defined, the EC50 (read off the curve) is the concentration giving half of the maximal effect. A high value points to weaker potency.

The record followed here is patent US20100221248A1 (MIT, published 2010).

Assay [1] concerns the target T1, RIIA131R tetramer (biotinylated human FcγRIIA 131R complexed to streptavidin-PE) (human, UniProt P12318 34-217; P22629 37-163, limits assumed, PE conjugate; singly biotinylated).
T1 construct: Biotinylated FcR incubated with streptavidin-PE at a 4:1 molar ratio; Kd values measured against it are apparent (avid) values; also called RIIA tetramer; PE-tagged RIIA tetramer
The assay can be described thus: yeast display titration with PE-tagged tetramer, flow cytometry; apparent (avid) Kd; parent clone IIA726 from the seventh FACS sort. The protocol: (§1) The yeast cells were washed and analyzed by flow cytometry.
(§2) Characterization of Individual Clones. Plasmid DNA was recovered from the later library generations (Zymoprep II kit) and transformed into competent DH5a bacteria (Invitrogen). Individual colonies (usually ten) were grown, miniprepped, and sequenced, as well as re-transformed into EBY100 yeast (EZ Yeast Transformation Kit, Zymo Research). The resulting clones were cultured in SD-CAA and induced in SG-CAA for analysis. To rapidly compare different clones, 0.1 OD.ml aliquots of yeast were labeled with a low and a high concentration of PE-tagged RIIA (1 nM, 30 nM) or RIIIA (0.3 nM, 10 nM) tetramer for 1 hour at RT prior to flow cytometry (Coulter Epics XL). The apparent tetramer Kd was estimated from the ratio of the two mean fluorescence readings. […] The labeling volumes (in PBSA) were chosen to give at least a 10-fold excess of FcR over Fn3. The yeast cells were centrifuged and washed with 0.5 ml PBSA for analysis by flow cytometry. The Kd value was determined by fitting the data to the equation y=A[tetramer]/([tetramer]+Kd)+B.

Assay [2] concerns the target T2, RIIB tetramer (biotinylated human FcγRIIB complexed to streptavidin-PE) (human, UniProt P31994 43-217; P22629 37-163, limits assumed, PE conjugate; singly biotinylated).
T2 construct: Biotinylated FcR incubated with streptavidin-PE at a 4:1 molar ratio; also called PE-tagged RIIB tetramer
Nature of the assay: flow cytometry titration of yeast surface-displayed IIA726 with streptavidin-PE RIIB tetramer, 2 h at room temperature. The protocol: as §1, §2

Assay [3] addresses T1, RIIA131R tetramer (biotinylated human …). The assay can be described thus: flow cytometry titration of yeast surface-displayed IIA726 with streptavidin-PE RIIA131R tetramer, 2 h at room temperature. The protocol:
as §1, §2
(Flow cytometry measures light scatter and fluorescence of single cells or particles in a stream.)

Assay [4] has as its target T2, RIIB tetramer (biotinylated human …). Nature of the assay: yeast display, flow cytometry with PE-tagged tetramer.
In assay [5] the target is T1, RIIA131R tetramer (biotinylated human …). The assay can be described thus: yeast display with PE-tagged tetramer, flow cytometry; apparent (avid) Kd; clone IIA827, IIA726 with the single mutation printed 188S. The protocol: as §2
The target of a further assay is T3, human FcγRIIB, soluble (human, UniProt P31994 43-217, limits assumed).
T3 construct: also called hFcγRIIB
T3 sequence (looked up): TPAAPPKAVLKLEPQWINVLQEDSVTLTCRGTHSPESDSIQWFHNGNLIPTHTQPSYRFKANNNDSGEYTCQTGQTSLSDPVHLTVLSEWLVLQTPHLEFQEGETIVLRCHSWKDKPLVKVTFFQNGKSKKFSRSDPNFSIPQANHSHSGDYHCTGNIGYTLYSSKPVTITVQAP
The assay can be described thus: SPR (Biacore T100), MBP-Fn3 immobilized, soluble FcR injected. The protocol: (§3) Surface Plasmon Resonance Analysis. Steady state affinity measurements were performed on a Biacore T100 biosensor. MBP-Fn3 fusion proteins were immobilized to CM5 sensor chips (Biacore) by standard amine coupling. […] Dissociation constants were calculated after subtraction of background binding to a control flow cell using Biacore T100 Evaluation software.

Assay [6] addresses T4, human FcγRIIA, 131R allele, soluble (human, UniProt P12318 34-217, limits assumed).
T4 construct: also called hFcγRIIA
T4 sequence (looked up): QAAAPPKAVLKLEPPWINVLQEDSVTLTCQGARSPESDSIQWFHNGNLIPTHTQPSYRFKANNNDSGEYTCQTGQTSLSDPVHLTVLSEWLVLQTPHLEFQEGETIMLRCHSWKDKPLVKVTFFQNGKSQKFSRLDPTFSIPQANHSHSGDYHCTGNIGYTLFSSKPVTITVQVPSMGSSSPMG
The assay can be described thus: SPR (Biacore T100), steady state, MBP-Fn3 immobilized, soluble FcR injected. The protocol:
as §3

The target of assay [7] is T5, human FcγRIIA, 131H allele, soluble (human, UniProt P12318 34-217, limits assumed).
T5 construct: also called hFcγRIIA
T5 sequence (looked up): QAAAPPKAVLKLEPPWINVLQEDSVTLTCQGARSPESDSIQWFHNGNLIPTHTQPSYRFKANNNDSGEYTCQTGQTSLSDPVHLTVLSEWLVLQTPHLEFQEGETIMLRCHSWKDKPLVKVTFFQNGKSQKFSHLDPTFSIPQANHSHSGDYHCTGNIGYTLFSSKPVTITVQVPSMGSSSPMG
The assay is described as above. The protocol: as §3

The target of assay [8] is T4, human FcγRIIA, 131R allele, soluble. The assay can be described thus: SPR (Biacore T100), MBP-Fn3 immobilized, soluble FcR injected. The protocol: as §3
For orientation: Surface plasmon resonance follows binding to a sensor surface in real time, without labels.

Assay [9] addresses T5, human FcγRIIA, 131H allele, soluble. Described as above. The protocol:
as §3

For assay [10], the target named is T6, human FcγRIIIA on the surface of human peripheral blood mononuclear cells (non-lymphocyte gate) (human, UniProt P08637 17-254).
T6 construct: whole, on cells; The target is inferred from the stated aim of the experiment, which was recognition of FcRs expressed on cell surfaces; also called RIIIA on PBMCs
T6 sequence (P08637 17-254): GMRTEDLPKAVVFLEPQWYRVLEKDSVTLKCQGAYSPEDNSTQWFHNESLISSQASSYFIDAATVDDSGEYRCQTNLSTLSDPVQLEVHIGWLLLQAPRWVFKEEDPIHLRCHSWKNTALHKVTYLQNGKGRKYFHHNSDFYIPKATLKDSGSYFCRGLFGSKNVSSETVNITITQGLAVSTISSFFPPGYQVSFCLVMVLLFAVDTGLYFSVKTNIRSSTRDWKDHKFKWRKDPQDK
The assay can be described thus: flow cytometry of human PBMCs with biotinylated MBP-Fn3 complexed to streptavidin-PE. The text has this:
To determine whether the Fn3 domains were able to recognize FcRs expressed on cell surfaces, each MBP-Fn3 fusion protein was biotinylated, complexed with streptavidin-PE and used to label human peripheral blood mononuclear cells (PBMCs).

T1 sequence (P22629 37-163 limits assumed, one chain of several): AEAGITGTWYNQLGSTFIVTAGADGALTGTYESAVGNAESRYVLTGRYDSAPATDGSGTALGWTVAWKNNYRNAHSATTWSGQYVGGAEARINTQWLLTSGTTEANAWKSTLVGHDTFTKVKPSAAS
T2 sequence (P22629 37-163 limits assumed, one chain of several): as above

B1: IIA726 (mutant Fn3 domain, yeast surface-displayed clone) (designed binder)
chain: VSDVPGDLEVVAATPTSLLISWCTHLHWDYYRIFYGETGGNSPVQEFTVPALCPGATISGLKPGVDYTITAYAVTVGGDDWPISINYRTEIDEPSQ
notes: It contains a pair of Cys residues in the BC and DE loops; also called yeast surface-displaying IIA726
B1: in [1], the Kd worked out at 1.2 nM. The binding result in assay [2] is on record as “no binding (tested: 100 nM)”. The concentration for a half-maximal effect (EC50 (read off the curve)) in [3] is ~1 nM.

B2: IIA827 (mutant Fn3 domain, yeast surface-displayed clone) (designed binder)
chain: VSDVPGDLEVVAATPTSLLISWCTHLHWDYYRIFYGETGGNSPVQEFTVPALCPGATISGLKPGVDYTITAYAVTVGGDDWPSSINYRTEIDEPSQ
notes: Derived from IIA726 by a single mutation, printed '188S'; also called clone IIA827
B2: the binding result in assay [4] was “no binding (tested: 100 nM)”. For the same molecule, the Kd in assay [5] was determined as 0.54 nM.

B3: MBP-IIA726 (designed binder)
chain: LGENLYFQSVSDVPGDLEVVAATPTSLLISWCTHLHWDYYRIFYGETGGNSPVQEFTVPALCPGATISGLKPGVDYTITAYAVTVGGDDWPISINYRTEIDEPSQ
notes: Fn3 domain as a C-terminal fusion to MBP; It was first expressed in Rosetta(DE3), then in Rosetta-gami 2 to promote the disulfide bond between the BC and DE loops; For PBMC labelling it was biotinylated and complexed with streptavidin-PE; also called MBP fusion of IIA726; not shown: limits and vector linker not stat
In the case of B3, the binding result with human FcγRIIB, soluble is recorded as “no binding”.

B4: MBP-IIA827 (designed binder)
chain: LGENLYFQSVSDVPGDLEVVAATPTSLLISWCTHLHWDYYRIFYGETGGNSPVQEFTVPALCPGATISGLKPGVDYTITAYAVTVGGDDWPSSINYRTEIDEPSQ
notes: Produced in Rosetta-gami 2; not shown: limits and vector linker not stat
Turning to B4, the Kd in assay [6] was 850 nM; in assay [7] it was 6200 nM.

B5: MBP-IIIA537 (designed binder)
chain: LGENLYFQSVSDVPRDLEVVVATPTSLLINWDLPFSDSYRITYGETGGNSPVQGFTVPGTESIATISGLKPGVDYTITVYAVASSGSNSYPISINYRTEIDKPSQ
notes: Fn3 domain as a C-terminal fusion to MBP, expressed in E. coli Rosetta(DE3); For PBMC labelling it was biotinylated and complexed with streptavidin-PE; also called MBP fusion of IIIA537; not shown: limits and vector linker not stat
Turning to B5, the binding result is “no binding” in assay [8]; “no binding” with human FcγRIIB, soluble; “no binding” in [9]; “binds” in assay [10].

B6: MBP-IIIA626 (designed binder)
chain: LGENLYFQSVSDVPRDLEVVVATPTSLLINWDMPFSDSYRIAYGETGGNSPVQEFTVPGTDSLATISGLKPGVDYTITVYAVTSSGSNSYPISINYRTEIDKPSQ
notes: Fn3 domain as a C-terminal fusion to MBP, expressed in E. coli Rosetta(DE3); For PBMC labelling it was biotinylated and complexed with streptavidin-PE; also called MBP fusion of IIIA626; not shown: limits and vector linker not stat
As to B6, the binding result in assay [8] is given as “no binding”; in the assay with human FcγRIIB, soluble, “no binding”; in [9], “no binding”; in assay [10] it was “binds”.
